The values below are quoted from earlier work in paper PMC10035860.

In the data set the target is growth hormone receptor (Homo sapiens) (UniProt P10912).
Sequence of UniProt P10912 (P10912 19-638): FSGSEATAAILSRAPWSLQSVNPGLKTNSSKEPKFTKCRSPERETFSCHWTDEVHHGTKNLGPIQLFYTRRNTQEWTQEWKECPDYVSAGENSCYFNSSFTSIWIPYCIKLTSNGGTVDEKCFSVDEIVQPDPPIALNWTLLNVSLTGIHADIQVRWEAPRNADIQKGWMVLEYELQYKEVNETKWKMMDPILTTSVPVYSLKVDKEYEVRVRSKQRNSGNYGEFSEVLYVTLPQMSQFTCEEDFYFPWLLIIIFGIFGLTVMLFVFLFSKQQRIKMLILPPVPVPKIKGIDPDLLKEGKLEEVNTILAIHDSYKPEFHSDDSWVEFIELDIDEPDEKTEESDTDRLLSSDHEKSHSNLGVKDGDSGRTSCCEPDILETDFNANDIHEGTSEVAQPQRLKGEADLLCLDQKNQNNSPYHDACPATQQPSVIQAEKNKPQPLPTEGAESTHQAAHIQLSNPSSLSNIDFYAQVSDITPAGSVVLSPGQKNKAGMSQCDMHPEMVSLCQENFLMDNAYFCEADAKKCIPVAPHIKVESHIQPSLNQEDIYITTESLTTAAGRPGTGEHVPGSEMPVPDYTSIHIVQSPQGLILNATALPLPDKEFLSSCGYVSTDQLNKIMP

Sequence of growth hormone (P01241 27-217): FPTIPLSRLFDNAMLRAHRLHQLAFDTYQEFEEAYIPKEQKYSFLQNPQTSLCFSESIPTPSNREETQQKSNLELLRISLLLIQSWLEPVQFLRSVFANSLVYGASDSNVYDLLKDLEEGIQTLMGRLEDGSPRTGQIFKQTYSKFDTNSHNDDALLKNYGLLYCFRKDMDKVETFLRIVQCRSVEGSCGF

Take growth hormone (from UniProt P01241): the Kd was 0.3 nM.
